According to publication PMC9830914, “Differential effects of mutations of POPDC proteins on heteromeric interaction and membrane trafficking” (Acta Neuropathologica Communications, 2023):
Residue numbers refer to the chain shown, from its start.

How the values were obtained:
POPDC1-VC155 (human) = POPDC1-VC155 (human) (UniProt Q8NE79); experiment: split reporter (BiFC, NanoBiT); BiFC in HEK293 cells, split Venus VC155 on POPDC1 and VN155 on POPDC2; Venus signal normalised to co-transfected mRFP and to the wild-type pair (set to 1); settings: scale: relative to the wild-type pair
POPDC1 p.S201F-VC155 = target: T1, POPDC1 p.S201F-VC155 (human, UniProt Q8NE79 1-360, p.S201F); experiment: as above; settings: partners not purified
T1 construct: POPDC1 (BVES), human, full-length cDNA with the patient variant p.S201F; source: HEK293, transfected, in cells; not shown: split Venus VC155, C-terminal, kept
T1 sequence (looked up): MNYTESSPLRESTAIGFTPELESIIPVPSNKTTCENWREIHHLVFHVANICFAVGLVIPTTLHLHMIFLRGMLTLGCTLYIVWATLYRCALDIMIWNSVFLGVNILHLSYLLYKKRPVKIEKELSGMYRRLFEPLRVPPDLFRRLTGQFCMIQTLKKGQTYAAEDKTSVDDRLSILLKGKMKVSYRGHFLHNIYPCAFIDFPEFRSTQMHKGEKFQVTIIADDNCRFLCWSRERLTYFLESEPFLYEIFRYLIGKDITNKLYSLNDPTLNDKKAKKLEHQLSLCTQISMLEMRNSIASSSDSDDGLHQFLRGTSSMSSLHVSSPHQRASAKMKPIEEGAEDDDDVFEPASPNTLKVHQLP

[1] = target: POPDC1 p.Q153X-VC155 (human) (UniProt Q8NE79); experiment: as above; settings: scale: relative to the wild-type pair
[2] = target: the molecule itself; experiment: SDS-PAGE and Western blot of oligomer bands; COS-7 cells lysed in 4 M urea and 10% SDS without a reducing agent; anti-GFP antibody detects complexes that hold POPDC1-CFP
[3] = target: the molecule itself; experiment: FRET or BRET; type-1 quantitative NanoBRET in HEK293 cells; C-terminal NanoLuc and HaloTag (HaloTag-618 dye); expression ratios varied at constant total expression; curves compared to ideal curves for monomers, dimers and other stoichiometries

POPDC2 p.W188X-VN155 (from UniProt Q9HBU9 1-187) (domain or fragment)
BiFC signal relative to the wild-type pair (POPDC1-VC155 (human)): 0.59

B1: POPDC2-VN155 (natural protein, human, UniProt Q9HBU9 1-364, looked up)
chain: MSANSSRVGQLLLQGSACIRWKQDVEGAVYHLANCLLLLGFMGGSGVYGCFYLFGFLSAGYLCCVLWGWFSACGLDIVLWSFLLAVVCLLQLAHLVYRLREDTLPEEFDLLYKTLCLPLQVPLQTYKEIVHCCEEQVLTLATEQTYAVEGETPINRLSLLLSGRVRVSQDGQFLHYIFPYQFMDSPEWESLQPSEEGVFQVTLTAETSCSYISWPRKSLHLLLTKERYISCLFSALLGYDISEKLYTLNDKLFAKFGLRFDIRLPSLYHVLGPTAADAGPESEKGDEEVCEPAVSPPQATPTSLQQTPPCSTPPATTNFPAPPTRARLSRPDSGILASRIPLQSYSQVISRGQAPLAPTHTPEL
notes: POPDC2, human, full-length wild-type cDNA; also called wild-type POPDC2 with split Venus VN155; source: HEK293, transfected, in cells; not shown: split Venus VN155, C-terminal, kept
BiFC signal relative to the wild-type pair (POPDC1 p.S201F-VC155): 0.43 relative to the wild-type pair (set to 1)
BiFC signal relative to the wild-type pair [1]: 0.248

B2: POPDC1-CFP (natural protein, human, UniProt Q8NE79 1-360, looked up)
chain: T1 sequence (looked up) with F201S
notes: POPDC1 (BVES), human, full length cDNA in pECFP-N1; printed molecular weight of POPDC1 41.5 kDa; also called POPDC1-ECFP; source: COS-7, transfected, in lysate (4 M urea, 10% SDS, no reducing agent); not shown: CFP, C-terminal, kept
stoichiometry N [2]: 2

B3: POPDC1 with C-terminal NanoLuc or HaloTag (NanoBRET constructs) (natural protein, human, UniProt Q8NE79 1-360, looked up)
chain: T1 sequence (looked up) with F201S
modifications: HaloTag-618 dye on the HaloTag copy
notes: POPDC1 (BVES), human cDNA cloned into pFC14K (HaloTag) or pFC32K (NanoLuc); Two differently tagged copies of one protein, written as one molecule: each copy carries only one of the two tags; With POPDC2-NL the HaloTag copy was used; also called POPDC1-NL; POPDC1-HT; source: HEK293, transiently transfected, in live cells; not shown: NanoLuc (on the copy POPDC1-NL), C-terminal, kept; HaloTag (on …)
stoichiometry N [3]: 2
